According to patent US10017580B2, “Humanized anti-Tn-MUC1 antibodies and their conjugates” (ADC THERAPEUTICS S.A., priority 2014, dated 2018):

B1: Ab6: anti-Tn MUC 1 antibody comprising a VH domain according to SEQ ID NO. 28 and a VL domain according to SEQ ID NO. 33 (antibody, V domains shown)
VH: EVQLVESGAEVKKPGASVEVSCQASGYTFTDHAIHWVRQAPGQGLEWMGHFSPGNTDIKYNDKFKGRVTMTVDRSINTAYMELRRLRSDDTAVYYCKTSTFFFDYWGQGTMVTVSS
VL: DIVMTQSPLSLPVTPGEPASISCKSSQSLLNSGDQKNYLTWYLQKPGQSPQLLIYWASTRESGVPDRFSGSGSGTDFTLKISRVEAEDVGVYYCQNDYSYPLTFGGGTKVEIK
modifications: Synthetic sequence: Humanized antibody heavy chain variable region 5E5RHC9; Synthetic sequence: Humanized antibody light chain variable region 5E5RKB
B2: Ab5: anti-Tn MUC 1 antibody comprising a VH domain according to SEQ ID NO. 19 and a VL domain according to SEQ ID NO. 33 (antibody, V domains shown)
VH: EVQLVQSGAEVKKPGESLKISCKISGYIFTDHAIHWVRQMPGKGLEWMGHFSPGNTDIKYNDKFKGQVTLSVDRSINTAYLQWSSLKASDTAIYFCKTSTFFFDYWGQGTRVTVSS
VL: B1 VL
modifications: Synthetic sequence: Humanized antibody heavy chain variable region 5E5RHB10; Synthetic sequence: Humanized antibody light chain variable region 5E5RKB
B3: Ab4: anti-Tn MUC 1 antibody comprising a VH domain according to SEQ ID NO. 9 and a VL domain according to SEQ ID NO. 33 (antibody, V domains shown)
VH: QVQLVQSGAEVKKTGSSVKVSCKASGYTFTDHAIHWVRQAPGQALEWMGHFSPGNTDIKYNDKFKGRVTLTVDRSMSTAYMELSSLRSEDTAMYYCKTSTFFFDYWGQGTMVTVSS
VL: B1 VL
modifications: Synthetic sequence: Humanized antibody heavy chain variable region 5E5RHA8; Synthetic sequence: Humanized antibody light chain variable region 5E5RKB

How the values were obtained:
[1] = system: ZR-75-1 cell line, which expresses Tn-MUC1; test: ZR-75-1 cell binding assay by flow cytometry (protocol 6); conditions: for ZR-75-1 cell binding EC50: flow cytometry, live cells
Description: Protocol 6: ZR-75-1 Cell Binding Assay by Flow Cytometry Materials • Wash solution: PBS 0.1% (w/v) sodium azide • Binding buffer: PBS, 10% normal goat serum, 0.1% (w/v) sodium azide) • 96 well U-well microplate Protocol
Exponentially growing cells are suspended by incubation with cell dissociation buffer enzyme-free, Hanks-based (Gibco 13150-016) following the manufacturer's instructions. A cell count/viability is done on a dilution of 10 ul cells+Trypan Blue, 10 ul, with a haemocytomer. The suspension is centrifuged and the cell pellet re-suspended in binding buffer at 3×10^6 per ml. If significant levels of aggregates are present in the cell count, the suspension is filtered to remove aggregates. The cell suspension is dispensed (50 ul/well) in 96 well U-bottom plates and cooled on ice for 10 minutes. Primary antibody (50 ul/well) diluted in binding buffer (typically 1 ug per ml or less) is added to each well and incubated at 4° C. for 1 hour. The microplate is centrifuged 5 min at 300-400 g at 4° C., flicked to remove the supernatant and then the cell pellet re-suspended in 200 uL of wash buffer (PBS, 0.1% sodium azide). Centrifugation and re-suspension are done 4 times in all. After the last centrifugation, cells are re-suspended in 50 uL of binding buffer containing the biotin labelled conjugate 1:250 (kept at −20 C: Biotin-SP-AffiniPure F(ab′)2 Fragment Goat antihuman IgG (H+L); Jackson 109-066-088). Cells are incubated for 1 hour at 4 C, then washed 4 times as before. Cells are resuspended in 50 ul of binding buffer containing Streptavidin, Alexa Fluor® 488 conjugate (Life Technologies s11223) diluted 1:250 and Fixable Viability Dye eFluor® 780 (eBioscience 65-0865) diluted 1:2000, The cells are incubated at 4° C. for 1 hour and then washed 3 times, as above. Cells are then re-suspended in PBS if reading immediately or fixed in 100 ul of paraformaldehyde (2% (w/v) in PBS) and analysed with by flow cytometer (Accuri C6), gating on live cells which have a lower Fixable Viability Dye MFI compared to dead cells.
IgG binding potency to Tn-MUC1 was measured as per protocol 4 and binding to the ZR-75-1 cell line, which expresses Tn-MUC1, was measured as per protocol 6.

Tn-MUC1 (16TR-MUC1-Tn) = test: Tn-MUC1 binding ELISA (protocol 4); design: species or system human; conditions: for Tn-MUC1 binding EC50: ELISA on 16TR-MUC1-Tn coated plate
Tn-MUC1 (16TR-MUC1-Tn), sequence (P15941 141-460 limits assumed): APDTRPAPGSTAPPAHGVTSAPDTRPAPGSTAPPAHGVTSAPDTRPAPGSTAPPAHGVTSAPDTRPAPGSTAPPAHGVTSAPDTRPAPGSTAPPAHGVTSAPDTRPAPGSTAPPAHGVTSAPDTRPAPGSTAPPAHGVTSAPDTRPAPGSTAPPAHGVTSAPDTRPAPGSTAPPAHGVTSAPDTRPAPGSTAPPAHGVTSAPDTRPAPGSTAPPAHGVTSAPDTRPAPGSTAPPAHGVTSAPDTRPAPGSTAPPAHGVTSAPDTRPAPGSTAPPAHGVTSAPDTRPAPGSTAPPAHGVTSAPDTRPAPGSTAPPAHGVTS

[2] = Thermal denaturation assay (protocol 5); type: physicochemical; conditions: 50% inactivation temperature, 10 minutes heating, read by antigen-binding ELISA

Row | Molecule | ZR-75-1 cell binding EC50 [1] [µg/mL] | Tn-MUC1 binding EC50 (Tn-MUC1 (16TR-MUC1-Tn)) [µg/mL] | TnMUC1 binding potency compared with mouse 5E5 (in words) (Tn-MUC1 (16TR-MUC1-Tn); Tn-MUC1 binding assay data) | Tm [2] [°C] | ZR-75-1 binding potency compared with mouse 5E5 (in words) ([1]; flow cytometry EC50 data)
1 | B1 | 0.0413 | 0.0198 | substantially improved over the mouse 5E5 | – | –
2 | B2 | 0.01842 | 0.02687 | – | 62.58 | substantially improved over the mouse 5E5
3 | B3 | 0.04229 | 0.07549 | – | 65.23 | –
